T1: Activin A (human, UniProt P08476 311-426)
T1 construct: Homodimer of two βA subunits; bought from R&D Systems (#338-AC); also called inhibin-βA dimer; human Activin A
T1 sequence: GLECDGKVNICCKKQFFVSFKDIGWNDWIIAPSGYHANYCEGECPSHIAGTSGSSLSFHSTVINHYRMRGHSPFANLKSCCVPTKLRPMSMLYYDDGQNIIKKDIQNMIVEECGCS

T2: Activin AB (human, UniProt P08476 311-426; P09529 293-407)
T2 construct: Heterodimer of one betaA and one betaB subunit; bought (R&D Systems #1006-AB-005 / #1066-AB)
T2 chain 1: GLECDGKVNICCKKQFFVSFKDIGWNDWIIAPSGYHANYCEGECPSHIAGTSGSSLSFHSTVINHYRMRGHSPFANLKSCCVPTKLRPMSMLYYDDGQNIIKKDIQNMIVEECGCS
T2 chain 2: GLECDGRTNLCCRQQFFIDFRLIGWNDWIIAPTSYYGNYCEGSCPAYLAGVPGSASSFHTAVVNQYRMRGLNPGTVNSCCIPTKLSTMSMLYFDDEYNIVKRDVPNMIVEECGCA

T3: Activin AC (human, UniProt P55103 237-352)
T3 construct: Heterodimer of one betaA and one betaC subunit; bought (R&D Systems #4879-AC)
T3 sequence 1: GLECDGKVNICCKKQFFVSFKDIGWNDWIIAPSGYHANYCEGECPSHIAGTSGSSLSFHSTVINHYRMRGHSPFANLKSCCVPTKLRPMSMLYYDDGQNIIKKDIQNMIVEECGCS
T3 sequence 2: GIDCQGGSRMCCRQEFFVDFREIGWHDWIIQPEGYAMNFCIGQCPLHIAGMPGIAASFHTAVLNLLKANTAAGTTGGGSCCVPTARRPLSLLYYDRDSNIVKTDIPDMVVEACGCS

T4: Activin A (human, UniProt P08476 311-426)
T4 sequence: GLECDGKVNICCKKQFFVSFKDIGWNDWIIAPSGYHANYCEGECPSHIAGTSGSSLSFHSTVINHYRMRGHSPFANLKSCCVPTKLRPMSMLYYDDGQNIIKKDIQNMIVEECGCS


What was measured:
Activin A [1] = target: T1, Activin A; test: SPR, captured mAb, 25C; no dissociation observed, kd fixed
Method: (§1) Antibody-antigen association was monitored for 240 seconds while dissociation in buffer was monitored for 600 seconds. Kinetic association and dissociation rate constants were determined by processing and fitting the data using Scrubber software version 2.0c. Binding equilibrium dissociation constants (KD) and dissociative half-lives (t_{1/2}) were then calculated from the kinetic rate constants as: KD (M)=kd/kₐ and t_{1/2} (min)=[ln 2/(60*kd)]. (NB=no binding observed under the conditions used; NT=not tested).

Activin A [2] = target: T1, Activin A; test: SPR, captured mAb, 25C
Method: as §1

Activin A [3] = target: T1, Activin A; test: SPR, captured mAb, 37C
Method: as §1

Activin A [4] = target: T1, Activin A; test: SPR, captured mAb, 37C; no dissociation observed, kd fixed
Method: as §1

Activin AB [5] = target: T2, Activin AB; test: SPR (Biacore), mAb captured on anti-Fc, Activin AB injected, 25 C
Method: as §1

Activin AC [6] = target: T3, Activin AC; test: SPR (Biacore), mAb captured on anti-Fc, Activin AC injected, 37 C
Method: as §1

Activin AC [7] = target: T3, Activin AC; test: SPR (Biacore), mAb captured on anti-Fc, Activin AC injected, 25 C
Method: as §1

Activin AC [8] = target: T3, Activin AC; test: cell-based or functional assay
Activin A [9] = target: T4, Activin A; test: cell-based or functional assay
Activin AB [10] = target: T2, Activin AB; test: cell-based or functional assay
Activin AB [11] = target: T2, Activin AB; test: SPR (Biacore), mAb captured on anti-Fc, Activin AB injected, 37 C
Method: as §1

| Binder | koff (Activin A [1]) | Activin A-20 nM (RU) (Activin A [2]) | Kd (Activin A [2]) | kon (Activin A [2]) | t1/2 (Activin A [2]) | Activin A-20 nM (RU) (Activin A [3]) | Kd (Activin A [3]) | kon (Activin A [3]) | t1/2 (Activin A [3]) | koff (Activin A [4]) | 50 nM Ag Bound (RU) (Activin AB [5]) | Kd (Activin AB [5]) | koff (Activin AB [5]) | kon (Activin AB [5]) | t1/2 (Activin AB [5]) | 50 nM Ag Bound (RU) (Activin AC [6]) | Kd (Activin AC [6]) | koff (Activin AC [6]) | kon (Activin AC [6]) | t1/2 (Activin AC [6]) | also measured |
| --- | --- | --- | --- | --- | --- | --- | --- | --- | --- | --- | --- | --- | --- | --- | --- | --- | --- | --- | --- | --- | --- |
| H4H10445P2 (antibody, human IgG4, V domains shown) VH: QVQLQESGPGLVKPSETLSLICSVSGGSFSSHFWSWIRQPPGKGLEWIGYVLYSGGTNYNPSLKSRVTISVDTSKNQFFLKLSSVTAADTADYYCARAISGITFGGIIVPGSFDIWGQGTMVTVSS VL: not shown | ≤ 5e-05 s⁻¹ | 43 RU | ≤ 0.0208 nM | 2.4e+06 M⁻¹ s⁻¹ | ≥ 231 min | 36 RU | ≤ 11.5 pM | 4.33e+06 M⁻¹ s⁻¹ | ≥ 231 min | ≤ 5e-05 s⁻¹ |  |  |  |  |  |  |  |  |  |  |  |
| H4H10448P2 (antibody, human IgG4, V domains shown) VH: QVQLQESGPGLVKPSETLSLTCTVSGGTFSSHFWSWIRQPPGKGLEWIGYIFYTGGTNHNPSLKSRVTISIDTSKNQFSLKLTSVTAADTAVYYCARARSGITFGGVIVPGSFDIWGQGTMVTVSS VL: not shown | ≤ 5e-05 s⁻¹ | 64 RU | ≤ 0.0105 nM | 4.76e+06 M⁻¹ s⁻¹ | ≥ 231 min | 49 RU | ≤ 6.36 pM | 7.86e+06 M⁻¹ s⁻¹ | ≥ 231 min | ≤ 5e-05 s⁻¹ |  |  |  |  |  |  |  |  |  |  |  |
| H4H10447P2 (antibody, human IgG4, V domains shown) VH: QVQLQESGPGLVKPSETLSLTCSVSGGSFSSHFWSWIRQPPGKGLEWIGYIHYSGGTNYNPSLKSRVTISVDTSKNQFSLKLTSVTAADTADYYCARAISGITFGGMIVPGSFDVWGEGTMVTVSS VL: not shown | ≤ 5e-05 s⁻¹ | 43 RU | ≤ 0.0212 nM | 2.36e+06 M⁻¹ s⁻¹ | ≥ 231 min | 36 RU | ≤ 10.7 pM | 4.69e+06 M⁻¹ s⁻¹ | ≥ 231 min | ≤ 5e-05 s⁻¹ |  |  |  |  |  |  |  |  |  |  |  |
| H4H10452P2 (antibody, human IgG4, V domains shown) VH: QVQLQESGPGLVKPSETLSLTCTVSGGSFSSHFWNWIRQSPGRGLEWIGYIYYSGGTNYNPSFKSRVTMSVDTSKNQFSLKLSSVTAADTAVFYCARARSGITFGGVLVPGSFDIWGQGTMVTVSS VL: not shown | ≤ 5e-05 s⁻¹ | 55 RU | ≤ 0.0107 nM | 4.69e+06 M⁻¹ s⁻¹ | ≥ 231 min | 43 RU | ≤ 6.3 pM | 7.94e+06 M⁻¹ s⁻¹ | ≥ 231 min | ≤ 5e-05 s⁻¹ |  |  |  |  |  |  |  |  |  |  |  |
| H4H10432P2 (antibody, human IgG4, V domains shown) VH: EVQLVESGGGLVQPGRSLTLSCAVSGFTFDDHAMHWVRQAPGKGLEWVSGISWNSVSIGYADSVKGRFTISRDNAKTSLYLQMNSLRVDDTALYYCVQDLNDILTGYPLFDFWGQGTLVTVSS VL: not shown |  |  |  |  |  |  |  |  |  |  | 38.3 RU | 0.568 nM | 0.00227 s⁻¹ | 4e+06 M⁻¹ s⁻¹ | 5.1 min | 34.6 RU | 12.5 nM | 0.00902 s⁻¹ | 722000 M⁻¹ s⁻¹ | 1.3 min | 50 nM Ag Bound (RU) (Activin AC [7]): 34.9 RU; Kd (Activin AC [7]): 2.98 nM; koff (Activin AC [7]): 0.00187 s⁻¹; kon (Activin AC [7]): 629000 M⁻¹ s⁻¹; t1/2 (Activin AC [7]): 6.2 min; IC50 [M], inhibition of 4 nM Activin AC in A204/CAGAx12-Luc Smad2/3-luciferase bioassay (Activin AC [8]): 2.8e-09 M; IC50 [M], inhibition of 100 pM Activin A in A204/CAGAx12-Luc Smad2/3-luciferase bioassay (Activin A [9]): 1.1e-10 M; IC50 [M], inhibition of 30 pM Activin AB in A204/CAGAx12-Luc Smad2/3-luciferase bioassay (Activin AB [10]): 8e-10 M; 50 nM Ag Bound (RU) (Activin AB [11]): 44.4 RU; Kd (Activin AB [11]): 1.1 nM; koff (Activin AB [11]): 0.00592 s⁻¹; kon (Activin AB [11]): 5.4e+06 M⁻¹ s⁻¹; t1/2 (Activin AB [11]): 2 min |
| H4H10468P2 (antibody, human IgG4, V domains shown) VH: QVQLQESGPGLVKPSETLSLTCTVSGGSFSSHFWSWIRQPPGKGLEWIGYIYYSGGTHYNPSLESRVTISVDTSKNQFSLKLNSVTAADTAVYYCARARSGITFGGLIVPGSFDIWGQGTMVTVSS VL: not shown |  |  |  |  |  |  |  |  |  |  | 34.7 RU | 0.556 nM | 0.00209 s⁻¹ | 3.76e+06 M⁻¹ s⁻¹ | 5.5 min | 10.7 RU | 17.3 nM | 0.0124 s⁻¹ | 719000 M⁻¹ s⁻¹ | 0.9 min | 50 nM Ag Bound (RU) (Activin AC [7]): 17.2 RU; Kd (Activin AC [7]): 7.41 nM; koff (Activin AC [7]): 0.00592 s⁻¹; kon (Activin AC [7]): 798000 M⁻¹ s⁻¹; t1/2 (Activin AC [7]): 2 min; IC50 [M], inhibition of 4 nM Activin AC in A204/CAGAx12-Luc Smad2/3-luciferase bioassay (Activin AC [8]): 3.4e-09 M; IC50 [M], inhibition of 100 pM Activin A in A204/CAGAx12-Luc Smad2/3-luciferase bioassay (Activin A [9]): 3.9e-11 M; IC50 [M], inhibition of 30 pM Activin AB in A204/CAGAx12-Luc Smad2/3-luciferase bioassay (Activin AB [10]): 2.3e-09 M; 50 nM Ag Bound (RU) (Activin AB [11]): 34.5 RU; Kd (Activin AB [11]): 0.88 nM; koff (Activin AB [11]): 0.00443 s⁻¹; kon (Activin AB [11]): 5.03e+06 M⁻¹ s⁻¹; t1/2 (Activin AB [11]): 2.6 min |

— patent publication US20150037339A1 (Regeneron, published 2015)
